Measurements published in the supplement of paper PMC9112550, “Optimization of the antimicrobial peptide Bac7 by deep mutational scanning” (BMC Biology, 2022).

Test system: Escherichia coli TOP10
Test: shrunken log2 fold change of peptide-encoding DNA abundance (4.5 h post-induction vs induction); higher = less antimicrobial activity (less host growth inhibition)
Settings: time post-induction: 4.5 h; library: site-saturation at positions 5, 18, 19, 20
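Further: peptides expressed intracellularly from a pBAD plasmid library in pooled LB shake-flask culture, induced with 0.3% L-arabinose, DNA abundance read by NGS, three biological replicates, DESeq2 with apeglm shrinkage.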

Row | Sequence | shrunken log2 fold change
1 | RRIRERPPRLPRPRPRPLACPRP | -0.269
2 | RRIRERPPRLPRPRPRPLAPPRP | 0.101
3 | RRIRERPPRLPRPRPRPLCAPRP | -0.0485
4 | RRIRERPPRLPRPRPRPLDLPRP | -0.357
5 | RRIRERPPRLPRPRPRPLEPPRP | 0.0736
6 | RRIRERPPRLPRPRPRPLEVPRP | -0.166
7 | RRIRERPPRLPRPRPRPLFAPRP | -0.0197
8 | RRIRERPPRLPRPRPRPLFIPRP | -0.0618
9 | RRIRERPPRLPRPRPRPLHCPRP | 0.0821
10 | RRIRERPPRLPRPRPRPLHGPRP | -0.212
11 | RRIRERPPRLPRPRPRPLHTPRP | -0.674
12 | RRIRERPPRLPRPRPRPLIFPRP | -0.406
13 | RRIRERPPRLPRPRPRPLILPRP | -0.574
14 | RRIRERPPRLPRPRPRPLITPRP | -0.412
15 | RRIRERPPRLPRPRPRPLKEPRP | -0.0885
16 | RRIRERPPRLPRPRPRPLKNPRP | -0.477
17 | RRIRERPPRLPRPRPRPLKSPRP | -0.169
18 | RRIRERPPRLPRPRPRPLLFPRP | -0.121
19 | RRIRERPPRLPRPRPRPLLGPRP | -0.144
20 | RRIRERPPRLPRPRPRPLNPPRP | -0.0394
21 | RRIRERPPRLPRPRPRPLNSPRP | -0.432
22 | RRIRERPPRLPRPRPRPLPFPRP | -0.688
23 | RRIRERPPRLPRPRPRPLPIPRP | -0.0301
24 | RRIRERPPRLPRPRPRPLPLPRP | -0.0754
25 | RRIRERPPRLPRPRPRPLPNPRP | -0.658

Row | Sequence | shrunken log2 fold change
26 | RRIRERPPRLPRPRPRPLQCPRP | -0.254
27 | RRIRERPPRLPRPRPRPLQMPRP | -0.0246
28 | RRIRERPPRLPRPRPRPLQTPRP | 0.22
29 | RRIRERPPRLPRPRPRPLQWPRP | 0.499
30 | RRIRERPPRLPRPRPRPLTCPRP | -0.149
31 | RRIRERPPRLPRPRPRPLTPPRP | -0.123
32 | RRIRERPPRLPRPRPRPLTSPRP | -0.00875
33 | RRIRERPPRLPRPRPRPLVWPRP | 0.339
34 | RRIRERPPRLPRPRPRPLWVPRP | -0.109
35 | RRIRERPPRLPRPRPRPLYKPRP | -0.769
36 | RRIRERPPRLPRPRPRPMCGPRP | -0.0439
37 | RRIRERPPRLPRPRPRPMGHPRP | -0.298
38 | RRIRERPPRLPRPRPRPMLHPRP | -0.542
39 | RRIRERPPRLPRPRPRPMLSPRP | -0.376
40 | RRIRERPPRLPRPRPRPMQGPRP | -0.0783
41 | RRIRERPPRLPRPRPRPMQNPRP | 0.168
42 | RRIRERPPRLPRPRPRPMQSPRP | 0.0874
43 | RRIRERPPRLPRPRPRPMRKPRP | -0.0645
44 | RRIRERPPRLPRPRPRPMRLPRP | 0.472
45 | RRIRERPPRLPRPRPRPMTYPRP | -0.121
46 | RRIRERPPRLPRPRPRPMWVPRP | 0.292
47 | RRIRERPPRLPRPRPRPMYHPRP | -0.594
48 | RRIRERPPRLPRPRPRPMYSPRP | -0.552
49 | RRIRERPPRLPRPRPRPNCPPRP | -0.409
50 | RRIRERPPRLPRPRPRPNCWPRP | 0.659

Row | Sequence | shrunken log2 fold change
51 | RRIRERPPRLPRPRPRPNDHPRP | -0.622
52 | RRIRERPPRLPRPRPRPNIYPRP | -0.538
53 | RRIRERPPRLPRPRPRPNKIPRP | -0.642
54 | RRIRERPPRLPRPRPRPNKLPRP | -0.596
55 | RRIRERPPRLPRPRPRPNLEPRP | -0.228
56 | RRIRERPPRLPRPRPRPNLGPRP | -0.161
57 | RRIRERPPRLPRPRPRPNLMPRP | -0.665
58 | RRIRERPPRLPRPRPRPNMYPRP | -0.976
59 | RRIRERPPRLPRPRPRPNNKPRP | -0.849
60 | RRIRERPPRLPRPRPRPNPHPRP | -0.234
61 | RRIRERPPRLPRPRPRPNRPPRP | -0.123
62 | RRIRERPPRLPRPRPRPNRVPRP | -0.00226
63 | RRIRERPPRLPRPRPRPNTSPRP | 0.37
64 | RRIRERPPRLPRPRPRPNVCPRP | -0.382
65 | RRIRERPPRLPRPRPRPNYHPRP | -0.626
66 | RRIRERPPRLPRPRPRPPCAPRP | -0.0458
67 | RRIRERPPRLPRPRPRPPCCPRP | 0.00664
68 | RRIRERPPRLPRPRPRPPCIPRP | -0.163
69 | RRIRERPPRLPRPRPRPPCSPRP | -0.258
70 | RRIRERPPRLPRPRPRPPDIPRP | -0.225
71 | RRIRERPPRLPRPRPRPPEHPRP | 0.114
72 | RRIRERPPRLPRPRPRPPEQPRP | 0.251
73 | RRIRERPPRLPRPRPRPPFEPRP | 0.363
74 | RRIRERPPRLPRPRPRPPFPPRP | 0.018
75 | RRIRERPPRLPRPRPRPPFWPRP | -0.0269

Row | Sequence | shrunken log2 fold change
76 | RRIRERPPRLPRPRPRPPGHPRP | -0.0333
77 | RRIRERPPRLPRPRPRPPGLPRP | 0.433
78 | RRIRERPPRLPRPRPRPPHDPRP | 0.0906
79 | RRIRERPPRLPRPRPRPPHMPRP | -0.152
80 | RRIRERPPRLPRPRPRPPHSPRP | 0.0332
81 | RRIRERPPRLPRPRPRPPICPRP | -0.302
82 | RRIRERPPRLPRPRPRPPLQPRP | -0.176
83 | RRIRERPPRLPRPRPRPPLWPRP | 0.779
84 | RRIRERPPRLPRPRPRPPNSPRP | -0.148
85 | RRIRERPPRLPRPRPRPPPAPRP | 0.365
86 | RRIRERPPRLPRPRPRPPPEPRP | 0.574
87 | RRIRERPPRLPRPRPRPPPFPRP | 0.313
88 | RRIRERPPRLPRPRPRPPSIPRP | -0.0171
89 | RRIRERPPRLPRPRPRPPTDPRP | -0.0968
90 | RRIRERPPRLPRPRPRPPTIPRP | -0.0452
91 | RRIRERPPRLPRPRPRPPTPPRP | 0.192
92 | RRIRERPPRLPRPRPRPPTWPRP | 0.113
93 | RRIRERPPRLPRPRPRPPVSPRP | 0.0232
94 | RRIRERPPRLPRPRPRPPWFPRP | 0.0508
95 | RRIRERPPRLPRPRPRPPWSPRP | -0.0222
96 | RRIRERPPRLPRPRPRPPYCPRP | -0.275
97 | RRIRERPPRLPRPRPRPPYEPRP | -0.296
98 | RRIRERPPRLPRPRPRPPYKPRP | -0.107
99 | RRIRERPPRLPRPRPRPPYYPRP | -0.433
100 | RRIRERPPRLPRPRPRPQAFPRP | -0.017

Row | Sequence | shrunken log2 fold change
101 | RRIRERPPRLPRPRPRPQDMPRP | -0.492
102 | RRIRERPPRLPRPRPRPQECPRP | -0.399
103 | RRIRERPPRLPRPRPRPQEDPRP | -0.0088
104 | RRIRERPPRLPRPRPRPQFKPRP | -0.444
105 | RRIRERPPRLPRPRPRPQGFPRP | -0.144
106 | RRIRERPPRLPRPRPRPQHAPRP | -0.107
107 | RRIRERPPRLPRPRPRPQIVPRP | -0.108
108 | RRIRERPPRLPRPRPRPQLGPRP | 0.329
109 | RRIRERPPRLPRPRPRPQLWPRP | 0.116
110 | RRIRERPPRLPRPRPRPQMSPRP | -0.114
111 | RRIRERPPRLPRPRPRPQMTPRP | -0.312
112 | RRIRERPPRLPRPRPRPQPFPRP | 0.217
113 | RRIRERPPRLPRPRPRPQQEPRP | -0.0361
114 | RRIRERPPRLPRPRPRPQQGPRP | -0.219
115 | RRIRERPPRLPRPRPRPQQMPRP | -0.237
116 | RRIRERPPRLPRPRPRPQRCPRP | -0.0721
117 | RRIRERPPRLPRPRPRPQRDPRP | 0.0296
118 | RRIRERPPRLPRPRPRPQRRPRP | -0.0022
119 | RRIRERPPRLPRPRPRPQTEPRP | -0.0317
120 | RRIRERPPRLPRPRPRPQVGPRP | -0.0112
121 | RRIRERPPRLPRPRPRPQVYPRP | -0.023
122 | RRIRERPPRLPRPRPRPQWFPRP | -0.166
123 | RRIRERPPRLPRPRPRPQWWPRP | 0.273
124 | RRIRERPPRLPRPRPRPQYSPRP | -0.0489
125 | RRIRERPPRLPRPRPRPRDKPRP | -0.187

Row | Sequence | shrunken log2 fold change
126 | RRIRERPPRLPRPRPRPREKPRP | 0.354
127 | RRIRERPPRLPRPRPRPREPPRP | 0.392
128 | RRIRERPPRLPRPRPRPRFPPRP | 0.0958
129 | RRIRERPPRLPRPRPRPRFYPRP | -0.115
130 | RRIRERPPRLPRPRPRPRGMPRP | 0.0957
131 | RRIRERPPRLPRPRPRPRIMPRP | -0.712
132 | RRIRERPPRLPRPRPRPRISPRP | -1.36
133 | RRIRERPPRLPRPRPRPRKEPRP | -0.0305
134 | RRIRERPPRLPRPRPRPRLEPRP | -0.0353
135 | RRIRERPPRLPRPRPRPRLFPRP | 0.00738
136 | RRIRERPPRLPRPRPRPRLIPRP | -0.635
137 | RRIRERPPRLPRPRPRPRMKPRP | -0.243
138 | RRIRERPPRLPRPRPRPRNLPRP | -0.514
139 | RRIRERPPRLPRPRPRPRQHPRP | -0.0319
140 | RRIRERPPRLPRPRPRPRRHPRP | 0.411
141 | RRIRERPPRLPRPRPRPRRLPRP | 0.138
142 | RRIRERPPRLPRPRPRPRVGPRP | 0.33
143 | RRIRERPPRLPRPRPRPRWWPRP | 0.0167
144 | RRIRERPPRLPRPRPRPRYEPRP | -0.276
145 | RRIRERPPRLPRPRPRPRYKPRP | -0.0357
146 | RRIRERPPRLPRPRPRPRYWPRP | 0.185
147 | RRIRERPPRLPRPRPRPSAIPRP | -0.115
148 | RRIRERPPRLPRPRPRPSCCPRP | 0.294
149 | RRIRERPPRLPRPRPRPSCFPRP | -0.322
150 | RRIRERPPRLPRPRPRPSCQPRP | -0.47
